{"source": "paper PMC11045745", "about": "“NMR characterization of RNA binding property of the DEAD-box RNA helicase DDX3X and its implications for helicase activity”", "binders": {"B1": {"name": "poly-U10 (ssRNA)", "RNA": "UUUUUUUUUU"}}, "molecular_target": "DDX3X core WT (Homo sapiens, UniProt O00571 132-607)", "sequence (O00571 132-607)": "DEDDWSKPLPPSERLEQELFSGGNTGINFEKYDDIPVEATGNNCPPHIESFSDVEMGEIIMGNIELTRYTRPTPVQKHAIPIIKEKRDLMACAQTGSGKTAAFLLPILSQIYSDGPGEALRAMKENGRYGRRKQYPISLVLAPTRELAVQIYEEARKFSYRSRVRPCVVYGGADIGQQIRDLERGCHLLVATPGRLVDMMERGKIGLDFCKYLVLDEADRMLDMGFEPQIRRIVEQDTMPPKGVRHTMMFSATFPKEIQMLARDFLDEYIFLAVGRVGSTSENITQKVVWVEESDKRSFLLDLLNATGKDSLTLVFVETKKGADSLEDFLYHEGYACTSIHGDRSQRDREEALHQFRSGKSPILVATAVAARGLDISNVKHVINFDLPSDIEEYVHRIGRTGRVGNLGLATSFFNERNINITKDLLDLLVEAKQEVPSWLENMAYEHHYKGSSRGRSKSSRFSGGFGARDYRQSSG", "assay": "NMR (13C-1H HMQC); AMPPNP; apparent affinity lower than E348Q with ATP; EMSA: 20 mM HEPES-NaOH pH 7.4, 100 mM NaCl, 5 mM DTT, 10% glycerol, 5 mM ATP/MgCl2 or ADP/EDTA, 100 nM RNA; NMR: 35 C (30 C for UA-12mer), 40-50 uM protein (HMQC) or 100 uM RNA (19F), 5 mM ATP/MgCl2; NMR buffer not given in the material", "conditions": "protein: recombinant; tags: His6-SUMO removed (Ulp1); two-Gly linker", "data": [{"binder": "B1", "values": [{"measurement": "binding result", "value": "binds"}]}]}
